The target of the assay is recombinant human integrin α5β1 (human) (UniProt P08648).
Sequence of UniProt P08648 (P08648 42-1049, chain 1 of 2): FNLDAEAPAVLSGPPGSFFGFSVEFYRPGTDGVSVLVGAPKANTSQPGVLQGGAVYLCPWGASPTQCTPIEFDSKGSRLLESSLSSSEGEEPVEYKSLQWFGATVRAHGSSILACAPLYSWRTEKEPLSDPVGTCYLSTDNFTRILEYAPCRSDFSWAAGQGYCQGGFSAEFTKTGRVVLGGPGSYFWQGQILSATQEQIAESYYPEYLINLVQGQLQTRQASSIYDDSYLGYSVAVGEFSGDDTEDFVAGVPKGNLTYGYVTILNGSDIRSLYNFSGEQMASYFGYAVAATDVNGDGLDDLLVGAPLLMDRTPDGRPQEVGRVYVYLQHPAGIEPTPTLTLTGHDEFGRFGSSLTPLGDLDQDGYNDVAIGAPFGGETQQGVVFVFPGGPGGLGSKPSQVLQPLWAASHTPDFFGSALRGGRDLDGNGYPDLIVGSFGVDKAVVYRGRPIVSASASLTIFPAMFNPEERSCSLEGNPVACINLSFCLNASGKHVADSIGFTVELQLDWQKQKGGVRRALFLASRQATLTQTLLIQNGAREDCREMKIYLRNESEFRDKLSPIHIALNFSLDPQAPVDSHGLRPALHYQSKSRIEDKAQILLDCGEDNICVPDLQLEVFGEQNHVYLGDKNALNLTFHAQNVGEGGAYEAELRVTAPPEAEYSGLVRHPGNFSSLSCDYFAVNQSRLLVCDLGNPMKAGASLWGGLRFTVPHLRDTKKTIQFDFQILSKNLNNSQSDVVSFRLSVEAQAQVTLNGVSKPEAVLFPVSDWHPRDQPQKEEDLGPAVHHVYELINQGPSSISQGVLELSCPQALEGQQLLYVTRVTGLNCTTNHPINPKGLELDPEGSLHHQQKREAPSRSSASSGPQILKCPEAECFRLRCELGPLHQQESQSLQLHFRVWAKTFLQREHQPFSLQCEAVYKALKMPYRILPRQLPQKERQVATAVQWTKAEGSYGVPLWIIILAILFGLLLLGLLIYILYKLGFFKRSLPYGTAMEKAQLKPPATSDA
Sequence of UniProt P08648 (P05556 21-728, chain 2 of 2, further chain): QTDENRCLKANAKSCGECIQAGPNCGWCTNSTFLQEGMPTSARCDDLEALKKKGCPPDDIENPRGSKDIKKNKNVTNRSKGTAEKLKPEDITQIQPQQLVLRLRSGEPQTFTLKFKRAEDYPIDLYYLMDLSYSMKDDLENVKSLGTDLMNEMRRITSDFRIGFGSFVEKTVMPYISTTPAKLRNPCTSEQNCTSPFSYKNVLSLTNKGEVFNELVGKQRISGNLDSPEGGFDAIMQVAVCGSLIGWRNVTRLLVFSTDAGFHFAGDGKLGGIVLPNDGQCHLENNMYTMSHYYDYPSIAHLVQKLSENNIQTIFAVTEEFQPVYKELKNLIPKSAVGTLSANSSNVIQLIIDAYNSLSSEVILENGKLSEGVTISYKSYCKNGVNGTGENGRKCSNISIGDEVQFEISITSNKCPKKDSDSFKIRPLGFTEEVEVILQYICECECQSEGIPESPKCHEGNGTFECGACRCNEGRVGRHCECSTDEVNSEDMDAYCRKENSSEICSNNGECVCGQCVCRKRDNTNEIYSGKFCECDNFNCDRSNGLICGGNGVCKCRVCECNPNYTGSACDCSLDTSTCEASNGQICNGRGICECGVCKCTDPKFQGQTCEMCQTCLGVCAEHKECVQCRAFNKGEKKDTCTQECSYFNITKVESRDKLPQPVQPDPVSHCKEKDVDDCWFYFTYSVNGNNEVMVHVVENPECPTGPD

Consider “native PSG1 (pregnancy-specific glycoprotein 1) purified from the serum of pregnant women (from UniProt P11464 35-419) (natural protein)”, for which the reduction of adhesion of HTR8/SVneo cells to native PSG1 (30 μg/mL coated) by a neutralizing antibody to integrin α5, 21% oxygen was 45% and the reduction of adhesion of HTR8/SVneo cells to native PSG1 (30 μg/mL coated) by a neutralizing antibody to integrin β1, 21% oxygen amounted to 90%.

The values are drawn from publication PMC6912793.
